# Data from article PMC8154254, “On the Track of Long-Range Electron Transfer in B-Type Dye-Decolorizing Peroxidases: Identification of a Tyrosyl Radical by Computational Prediction and Electron Paramagnetic Resonance Spectroscopy” (Biochemistry, 2021).
# Substrate: CCn1c(=NN=c2sc3cc(S(=O)(=O)O)ccc3n2CC)sc2cc(S(=O)(=O)O)ccc21
# Assay: purified protein
# Type: biochemical, Klebsiella pneumoniae
# Conditions: 40 μM H2O2, 100 nM enzyme, 50 mM phosphate-citrate pH 5.0, room temperature
protein,measurement,value
"KpDyP (B-type Klebsiella pneumoniae dye-decolorizing peroxidase) (Klebsiella pneumoniae) (protein, recombinant from E. coli BL21 (DE3) Tuner; dimer) MSQVQSGILPEHCRAAIWIEANLKGDVNALREASKIFVDNVATFQAKFPDAKLGAVVAFGNNVWRQLSGGEGADELKDFPVYGKGLAPSTQYDLLIHILSARHEVNFSVAQAALAAFGDAIDVKEEIHGFRWVEERDLSGFVDGTENPAGEETRREVAVIKDGVDAGGSYVFVQRWEHNLKQLNRMSVPDQEMMIGRTKDANEEIDGDERPVTSHLSRVDLKEDGKGLKIVRQSLPYGTASGTHGLYFCAYCARLYNIEQQLLSMFGDTDGKRDAMLRFTKPVTGGYYFAPSLERIQAL",Km,20.5 ± 1.9 µM
same,kcat,3.1 ± 0.1 s⁻¹
same,kcat/Km,150000 M⁻¹ s⁻¹
